Where two headings read alike, the source gives them in different places.
B1: VGX-300 (Fc fusion)
chain: YSMTPPTLNITEESHVIDTGDSLSISCRGQHPLEWAWPGAQEAPATGDKDSEDTGVVRDCEGTDARPYCKVLLLHEVHANDTGSYVCYYKYIKARIEGTTAASSYVFVRDFEQPFINKPDTLLVNRKDAMWVPCLVSIPGLNVTLRSQSSVLWPDGQEVVWDDRRGMLVSTPLLHDALYLQCETTWGDQDFLSNPFLVHITGNELYDIQLLPRKSLELLVGEKLVLNCTVWAEFNSGVTFDWDYPGKQAERGKWVPERRSQQTHTELSSILTIHNVSQHDLGSYVCKANNGIQRFRESTEVIVHE
notes: only Ig-like domains I-III were in the molecule; Produced by transient expression in CHO or HEK cells; also called Parent; VGX-300 parent; not shown: Fc region gamma chain (detected with anti-human IgG)
B2: Human VEGF-D (ligand, UniProt O43915 93-201, looked up)
chain: FYDIETLKVIDEEWQRTQCSPRETCVEVASELGKSTNTFFKPPCVNVFRCGGCCNEESLICMNTSTSYISKQLFEISVPLTSVPELVPVKVANHTGCKCLPTAPRHPYS
notes: also called VEGF-D ligand
B3: VGX-301-ΔN2 (Fc fusion)
chain: YSMTPPTLNITEESHVIDTGDSLSISCRGQHPLEWAWPGAQEAPATGDKDSEDTGVVRDCEGTDARPYCKVLLLHEVHAQDTGSYVCYYKYIKARIEGTTAASSYVFVRDFEQPFINKPDTLLVNRKDAMWVPCLVSIPGLNVTLRSQSSVLWPDGQEVVWDDRRGMLVSTPLLHDALYLQCETTWGDQDFLSNPFLVHITGNELYDIQLLPRKSLELLVGEKLVLNCTVWAEFNSGVTFDWDYPGKQAERGKWVPERRSQQTHTELSSILTIHNVSQHDLGSYVCKANNGIQRFRESTEVIVHE
notes: also called N2 mutant; not shown: Fc region gamma chain as in VGX-300
B4: Human VEGF-C (ligand, UniProt P49767 103-227, looked up)
chain: TEETIKFAAAHYNTEILKSIDNEWRKTQCMPREVCIDVGKEFGVATNTFFKPPCVSVYRCGGCCNSEGLQCMNTSTSYLSKTLFEITVPLSQGPKPVTISFANHTSCRCMSKLDVYRQVHSIIRR
notes: also called VEGF-C ligand

Legend:
Human VEGF-D [1] = target: B2; assay: cell-based or functional assay
Human VEGF-D [2] = target: B2; assay: ELISA on plate-coated VEGF-D (2 µg/mL), anti-human IgG-HRP detection; sigmoidal fit of the curve of FIG. 2A
Human VEGF-C [3] = target: B4; assay: ELISA on plate-coated VEGF-C (2 µg/mL), anti-human IgG-HRP detection; sigmoidal fit of the curve of FIG. 2A
Human VEGF-C [4] = target: B4; assay: cell-based or functional assay
Human VEGF-C [5] = target: B4; assay: cell-based or functional assay; remark: listed apart in the source
Human VEGF-D [6] = target: B2; assay: cell-based or functional assay; remark: listed apart in the source
Human VEGF-C [7] = target: B4; assay: cell-based or functional assay; remark: listed apart in the source
Human VEGF-D [8] = target: B2; assay: cell-based or functional assay; remark: listed apart in the source
VGX-301-ΔN2 = target: B3; assay: SPR, ProteOn XPR36; trap captured on protein G' on a GLM chip, ligand as analyte
From the text: (§1) The results of the affinity experiment are provided below in Table 5.

VGX-300 = target: B1; assay: as above
From the text: as §1

B1
IC50 (read off the curve); VEGF-D-driven proliferation (WST-1) of Ba/F3 cells with the VEGFR-3 ECD/EpoR chimeric receptor (Human VEGF-D [1]): ~0.5 µg/mL | EC50 (Human VEGF-D [2]): 0.504 µg/mL | EC50 (Human VEGF-C [3]): 0.058 µg/mL | IC50 (read off the curve); VEGF-C-driven proliferation (WST-1) of Ba/F3 cells with the VEGFR-3 ECD/EpoR chimeric receptor (Human VEGF-C [4]): ~7 ng/mL | IC50 (read off the curve); VEGF-C-driven proliferation (WST-1) of Ba/F3 cells with the VEGFR-3 ECD/EpoR chimeric receptor (Human VEGF-C [5]): ~0.01 µg/mL | IC50 (read off the curve); VEGF-D-driven proliferation (WST-1) of Ba/F3 cells with the VEGFR-3 ECD/EpoR chimeric receptor (Human VEGF-D [6]): ~0.4 µg/mL | IC50 (read off the curve); VEGF-C-driven proliferation (WST-1) of Ba/F3 cells with the VEGFR-2 ECD/EpoR chimeric receptor (Human VEGF-C [7]): ~0.02 µg/mL | IC50 (read off the curve); VEGF-D-driven proliferation (WST-1) of Ba/F3 cells with the VEGFR-2 ECD/EpoR chimeric receptor (Human VEGF-D [8]): ~3 µg/mL

B2
Kd (VGX-301-ΔN2): 0.677 nM | Kd (VGX-300): 0.625 nM

B3
IC50 (read off the curve); VEGF-D-driven proliferation (WST-1) of Ba/F3 cells with the VEGFR-3 ECD/EpoR chimeric receptor (Human VEGF-D [1]): ~0.3 µg/mL | EC50 (Human VEGF-D [2]): 0.105 µg/mL | EC50 (Human VEGF-C [3]): 0.0295 µg/mL | IC50 (read off the curve); VEGF-C-driven proliferation (WST-1) of Ba/F3 cells with the VEGFR-3 ECD/EpoR chimeric receptor (Human VEGF-C [4]): ~5 ng/mL

B4
Kd (VGX-301-ΔN2): 0.0037 nM | koff (VGX-301-ΔN2): 1.03e-05 s⁻¹ | kon (VGX-301-ΔN2): 2.79e+06 M⁻¹ s⁻¹ | Kd (VGX-300): 0.0051 nM | koff (VGX-300): 1.11e-05 s⁻¹ | kon (VGX-300): 2.18e+06 M⁻¹ s⁻¹
